Results published in patent US5955431A, “Mast cell protease peptide inhibitors” (Brigham and Women's Hospital, Inc., priority 1998, dated 1999).
Where a SMILES comes first, the peptide text is derived from it. Where no end group is shown, it is not given here. The star is where a group is joined. pNA = O=[N+]([O-])c1ccc(N*)cc1; Tos = Cc1ccc(S(=O)(=O)*)cc1; Bz = O=C(c1ccccc1)*

B1: trypsin: serine protease used as comparison in fibroblast adhesion test (protein, UniProt P00760 24-246, looked up)
Serine protease 1: IVGGYTCGANTVPYQVSLNSGYHFCGGSLINSQWVVSAAHCYKSGIQVRLGEDNINVVEGNEQFISASKSIVHPSYNSNTLNNDIMLIKLKSAASLNSRVASISLPTSCASAGTQCLISGWGNTKSSGTSYPDVLKCLKAPILSDSSCKSAYPGQITSNMFCAGYLEGGKDSCQGDSGGPVVCSGKLQGIVSWGSGCAQKNKPGVYTKVCNYVSWIKQTIASN

How the values were obtained:
mMCP-6/heparin complex = target: T1, mMCP-6/heparin complex (Mus musculus, UniProt P21845); test: screening of tryptase-specific phage peptide display library with mMCP-6-FLAG in the presence of heparin; type: biochemical; conditions: for Clones (number of clones with this mMCP-6-susceptible peptide): equal weight amount of heparin
T1 construct: endogenous pro-peptide followed by EK-susceptible peptide (Asp-Asp-Asp-Asp-Lys) (N, cleaved yes); made in house; host or cells: baculovirus; Spodoptera frugiperda 9 for virus, Trichoplusia ni High Five insect cells for expression
T1 sequence (P21845 32-276): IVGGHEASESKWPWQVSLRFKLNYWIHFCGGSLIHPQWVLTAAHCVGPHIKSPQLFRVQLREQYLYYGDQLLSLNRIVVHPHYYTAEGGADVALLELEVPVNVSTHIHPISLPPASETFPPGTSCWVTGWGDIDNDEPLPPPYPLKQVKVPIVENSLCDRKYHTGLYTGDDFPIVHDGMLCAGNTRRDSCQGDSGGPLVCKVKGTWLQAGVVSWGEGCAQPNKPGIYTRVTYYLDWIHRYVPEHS
Description: (§1) Screening of a Tryptase-Specific, Bacteriophage Peptide Display Library with mMCP-6--A peptide display library that encodes an altered pIII containing at its N terminus the FLAG peptide followed by an 8-residue hypervariable peptide was screened with recombinant mMCP-6-FLAG. Briefly, phage were obtained that express on their surface a pill fusion protein with an extension peptide consisting of the FLAG peptide and a hypervariable octamer peptide containing a Lys/Arg residue at the PI site. After the varied phages in the library were allowed to bind to the anti-FLAG IgG column, the immuno-affinity column was incubated with recombinant mMCP-6-FLAG in the presence or absence of heparin. Those phage recovered in the column's eluate were amplified, and the selection procedure was repeated one lo three times. By determining the nucleotide sequence of the relevant portion of the geneIII construct in each clone, the amino acid sequence of the mMCP-6-susceptible peptide in the random domain of the pIII fusion protein was deduced. To prepare the phage column used in the screening process, 10 ml of the phage-enriched supernatant was added to 2 ml of 20% polyethylene glycol (8 kDa; Sigma) and 2.5 M NaCl and the mixture incubated at 4° C. for 30 min. After a 30 min centrifugation at 10,000 g, the recombinant phage in the pellet were resuspended in 2 ml of 150 mM NaCl, 1 mM […], and 10 mM sodium phosphate, pH 7.0, and applied to a 1-ml affinity column containing the anti-FLAG M1 monoclonal antibody. The column was washed 3 times with 10 ml of the same pH 7.0 buffer to remove unbound phage. EK-activated mMCP-6-FLAG (~50 μg in 200 μl buffer) in the absence or presence of heparin glycosaminoglycan (~50 μg) was added, and the column was sealed and incubated at room temperature for 90 min. […] Log-phase E. coli were infected with the obtained phage to produce phagemid. Bacteria were again grown in 2×YT medium containing 2% glucose and the phagemid in the bacteria were converted to phage with the addition of helper phage. This screening procedure was repeated up to 4 times to select the phage in the library which are most susceptible to degradation by mMCP-6-FLAG.
(§2) E. coli was infected with resulting mMCP-6-FLAG-susceptible phage to generate phagemids. The infected bacteria were seeded onto a plate containing 1.5% agar, 2% Bacto-tryptone, 0.5% Bacto-yeast extract, 2% glucose, 0.09 M NaCl, 0.01 M MgCl2, and 100 μg/ml ampicillin. Individual clones were isolated and grown overnight at 37° C. in 2 ml of 2×YT medium containing 2% glucose with 50 μg/ml ampicillin. One ml of the overnight cultures were centrifuged at ~12,000 g for 5 min. The bacteria in the pellets were lysed and the DNAs were extracted with mini-prep method. The DNAs were digested with NotI and EcoRI restriction enzymes at 37° C. overnight. The digested DNA mini-preps were subjected to electrophoresis on a 1% agarose gel, and those individual phage clones with ~1300-bp inserts were selected for maxi-preparation of their DNAs using nucleobond DNA-binding columns (The Nest Group). The nucleotide sequences which encode the 8-mer, protease-susceptible peptide domains in the fusion proteins were determined.

recombinant mMCP-6-FLAG [1] = target: T2, recombinant mMCP-6-FLAG (Mus musculus, UniProt P21845); test: screening of tryptase-specific phage peptide display library with mMCP-6-FLAG in the absence of heparin; type: biochemical; conditions: library incubated 4 times with mMCP-6-FLAG, 30 clones
T2 construct: endogenous pro-peptide followed by EK-susceptible peptide (Asp-Asp-Asp-Asp-Lys) (N, cleaved yes); made in house; host or cells: baculovirus; Spodoptera frugiperda 9 for virus, Trichoplusia ni High Five insect cells for expression
T2 sequence (P21845 32-276): T1 sequence (P21845 32-276)
Description: as §1, §2

recombinant mMCP-6-FLAG [2] = target: T2, recombinant mMCP-6-FLAG; test: spectrophotometric cleavage of trypsin-susceptible p-nitroanilide substrates by EK-activated mMCP-6-FLAG; type: biochemical; conditions: for cleavage of substrate by EK-activated tryptase (mMCP-6-FLAG): in the absence of heparin; for cleavage of substrate by mMCP-6-FLAG: in the presence or absence of heparin
Method: Purified pro-EK-mMCP-6-FLAG (~100 μg in 100 μl) was separately mixed with 100 μl of a pH 5.2 buffer consisting of 50 mM sodium acetate and 5 mM calcium chloride. One μl of a solution containing 550 U of calf intestine EK (Biozyme) was added to each, and the mixture was incubated at 37° C. generally for 3 h to allow EK to activate the zymogen in the absence of heparin. The spectrophotometric method of Svendsen and coworkers (Throm. Res. 1972, 1:267-278) was used to determine whether or not mMCP-6-FLAG is enzymatically active. Generally, 1-μl samples of each activation reaction were placed in 1 ml of a pH 7.4 buffer containing 25 mM sodium phosphate, 1 mM EDTA, and 50 μg of tosyl-Gly-Pro-Lys-p-nitroanilide. The change in optical density at 405 nm was then determined after a 3-min incubation at room temperature. The ability of recombinant mMCP-6-FLAG to cleave the trypsin-susceptible substrates tosyl-Gly-Pro-Arg-p-nitroanilide, benzoyl-Ile-Glu-Gly-Arg-p-nitroanilide, benzoyl-Pro-Phe-Arg-p-nitroanilide, and acetyl-Ile-Glu-Ala-Arg-p-nitroanilide were also evaluated.

[3] = system: Swiss albino mouse skin-derived 3T3 fibroblasts; test: adhesion and growth of fibroblasts on fibronectin-coated culture dishes; type: cell-based
Method: However, these cells will become less adhesive and divide in vitro when they are trypsin treated. To determine if mMCP-6-FLAG could specifically alter the growth and/or adhesion of these cells, the fibroblasts were allowed to attach to replicate fibronectin-coated culture dishes and then were incubated for 15 min at 37° C. with buffer alone or buffer containing either pro-EK-mMCP-6-FLAG, mMCP-6-FLAG, mMCP-7-FLAG, or trypsin. […] SDS-PAGE/immunoblot analysis of the supernatants from the result cultures confirmed that fibronectin was degraded in the mMCP-6-FLAG-treated cultures but not in the pro-EK-mMCP-6-FLAG or mMCP-7-FLAG treated cultures.

| Molecule | Clones (number of clones with this mMCP-6-susceptible peptide) (recombinant mMCP-6-FLAG [1]) | further results |
| --- | --- | --- |
| PKETKQTN |  | Clones (number of clones with this mMCP-6-susceptible peptide) (mMCP-6/heparin complex; four rounds of treatment): 1; Clones (number of clones with this mMCP-6-susceptible peptide) (mMCP-6/heparin complex; two rounds of treatment): 1 |
| TGVHKPST | 1 |  |
| Cc1ccc(S(=O)(=O)NCC(=O)N2CCC[C@H]2C(=O)N[C@@H](CCCNC(=N)N)C(=O)Nc2ccc([N+](=O)[O-])cc2)cc1 [tosyl-Gly-Pro-Arg-p-nitroanilide] (Tos-Gly-Pro-Arg-pNA) |  | cleavage of substrate by EK-activated tryptase (mMCP-6-FLAG) (recombinant mMCP-6-FLAG [2]): readily cleaves |
| LSTSRASI | 1 |  |
| PFTHKSLS |  | Clones (number of clones with this mMCP-6-susceptible peptide) (mMCP-6/heparin complex; two rounds of treatment): 1 |
| ECRQRHTR | 1 |  |
| PYPPKRTP | 1 |  |
| TPLLKSWL |  | Clones (number of clones with this mMCP-6-susceptible peptide) (mMCP-6/heparin complex; four rounds of treatment): 7; Clones (number of clones with this mMCP-6-susceptible peptide) (mMCP-6/heparin complex; two rounds of treatment): 5 |
| GPRLRHPR | 1 |  |
| KKIERRNT | 1 |  |
| RNRQKT [SEQ. ID NO. 1] |  | susceptibility of the sequence to cleavage (mMCP-6/heparin complex; mMCP-6/heparin complex): susceptible to cleavage by the mMCP-6/heparin complex |
| Cc1ccc(S(=O)(=O)NCC(=O)N2CCC[C@H]2C(=O)N[C@@H](CCCCN)C(=O)Nc2ccc([N+](=O)[O-])cc2)cc1 [tosyl-Gly-Pro-Lys-p-nitroanilide] (Tos-Gly-Pro-Lys-pNA) |  | cleavage of substrate by EK-activated tryptase (mMCP-6-FLAG) (recombinant mMCP-6-FLAG [2]): readily cleaves |
| QRTKRKHN | 1 |  |
| VRPARALH | 1 |  |
| SLSSRQSP | 1 | Clones (number of clones with this mMCP-6-susceptible peptide) (mMCP-6/heparin complex; four rounds of treatment): 2; Clones (number of clones with this mMCP-6-susceptible peptide) (mMCP-6/heparin complex; two rounds of treatment): 3 |
| RKPTKKNS | 1 |  |
| NLRKRKIK | 1 |  |
| FISRRVCR | 1 |  |
| QKRGREPR | 1 |  |

| Molecule | Clones (number of clones with this mMCP-6-susceptible peptide) (recombinant mMCP-6-FLAG [1]) | further results |
| --- | --- | --- |
| EEKKKHKK | 1 |  |
| SPRPRSTP | 1 |  |
| CC[C@H](C)[C@H](NC(=O)c1ccccc1)C(=O)N[C@@H](CCC(=O)O)C(=O)NCC(=O)N[C@@H](CCCNC(=N)N)C(=O)Nc1ccc([N+](=O)[O-])cc1 [benzoyl-Ile-Glu-Gly-Arg-p-nitroanilide] (Bz-IEGR-pNA) |  | cleavage of substrate by mMCP-6-FLAG (recombinant mMCP-6-FLAG [2]): does not effectively cleave |
| IRFARSQA | 1 |  |
| RNRQKTNN |  | Clones (number of clones with this mMCP-6-susceptible peptide) (mMCP-6/heparin complex; four rounds of treatment): 4; Clones (number of clones with this mMCP-6-susceptible peptide) (mMCP-6/heparin complex; two rounds of treatment): 11 |
| LIALRSTT | 1 |  |
| LCAKRLYR | 1 |  |
| N=C(N)NCCC[C@H](NC(=O)[C@H](Cc1ccccc1)NC(=O)[C@@H]1CCCN1C(=O)c1ccccc1)C(=O)Nc1ccc([N+](=O)[O-])cc1 [benzoyl-Pro-Phe-Arg-p-nitroanilide] (Bz-Pro-Phe-Arg-pNA) |  | cleavage of substrate by mMCP-6-FLAG (recombinant mMCP-6-FLAG [2]): does not effectively cleave |
| PPPFRRSS | 1 |  |
| NSTVRKRK | 1 |  |
| PDNQRYIT | 1 |  |
| PLILRSRA | 1 |  |
| PLPCKLDA | 1 |  |
| PTPLKHPR | 1 |  |
| VRPVKSFR | 2 |  |
| SLALRVWR | 1 |  |
| RQNRRPSN | 1 |  |
| SVLPKLRI |  | Clones (number of clones with this mMCP-6-susceptible peptide) (mMCP-6/heparin complex; four rounds of treatment): 1; Clones (number of clones with this mMCP-6-susceptible peptide) (mMCP-6/heparin complex; two rounds of treatment): 1 |
| B1 |  | adhesion/shape of fibroblasts on fibronectin-coated dishes ([3]; 15 min at 37° C.): rapidly induced the cultured fibroblasts to round up; fibroblasts remaining attached to the culture dish ([3]; 40 min incubation): very few fibroblasts remained attached |
